Laboratory results taken from patent US20210130485A1 (DENALI THERAPEUTICS, published 2021).

Tests used:
[1] = biological target: T1, Human transferrin receptor protein 1 (TFR1) (human, UniProt P02786 89-760, limits assumed); assay: soft randomization libraries selected against human TfR
T1 construct: also called human TfR

[2] = biological target: T1, Human transferrin receptor protein 1 …; assay: binding ELISA, purified Fab-Fc fusion, TfR coated on the plate
Protocol: Binding ELISAs were conducted with purified Fab-Fc fusion variants with human or cyno TfR coated on the plate, as described above. The variants from the clone CH3C.18 maturation library, clone CH3C.3.2-1, clone CH3C.3.2-5, and clone CH3C.3.2-19, bound human and cyno TfR with approximately equivalent EC₅₀ values, whereas the parent clones CH3C.18 and CH3C.35 had greater than 10-fold better binding to human versus cyno TfR.
ELISA plates were coated with antigen, typically at […] overnight, then blocked with 1% BSA before addition of phage or periplasmic extracts. […] The plates were washed again, and then developed with TMB reagent and quenched with 2N sulfuric acid. Absorbance at 450 nm was quantified using a plate reader (BioTek®) and binding curves were plotted using Prism software where applicable. Absorbance signal for tested clones was compared to negative control (phage or paraplasmic extract lacking Fc). In some assays, soluble transferrin or other competitor was added during the binding step, typically at significant molar excess (greater than 10-fold excess).

[3] = biological target: T1, Human transferrin receptor protein 1 …; assay: selection of combinatorial CH3 libraries for binders to human TfR, affinity maturation

T1 sequence (P02786 89-760 limits assumed): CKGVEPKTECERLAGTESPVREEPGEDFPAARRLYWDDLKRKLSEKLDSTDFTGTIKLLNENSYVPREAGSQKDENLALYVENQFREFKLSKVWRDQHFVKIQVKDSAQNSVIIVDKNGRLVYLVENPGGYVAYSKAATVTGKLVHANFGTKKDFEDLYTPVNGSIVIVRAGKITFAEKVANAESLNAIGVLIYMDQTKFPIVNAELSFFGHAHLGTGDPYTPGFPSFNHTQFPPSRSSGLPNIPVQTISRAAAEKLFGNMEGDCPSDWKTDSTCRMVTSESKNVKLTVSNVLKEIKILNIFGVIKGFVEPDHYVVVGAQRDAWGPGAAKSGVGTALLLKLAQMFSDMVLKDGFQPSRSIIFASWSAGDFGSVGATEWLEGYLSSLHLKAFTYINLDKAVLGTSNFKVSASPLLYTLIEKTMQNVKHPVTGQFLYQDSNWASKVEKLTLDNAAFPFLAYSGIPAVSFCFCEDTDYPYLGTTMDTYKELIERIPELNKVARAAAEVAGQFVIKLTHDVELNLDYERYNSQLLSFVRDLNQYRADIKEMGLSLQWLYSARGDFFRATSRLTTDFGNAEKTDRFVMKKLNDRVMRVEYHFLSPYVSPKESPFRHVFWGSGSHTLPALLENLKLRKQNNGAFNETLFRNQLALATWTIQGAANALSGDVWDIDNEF

Row | Binder | binding result [1] | also measured
1 | Clone CH3C.21 (designed binder, Modified Fc polypeptide) APELLGGPSVFLFPPKPKDTLMISRTPEVTCVVVDVSHEDPEVKFNWYVDGVEVHNAKTKPREEQYNSTYRVVSVLTVLHQDWLNGKEYKCKVSNKALPAPIEKTISKAKGQPREPQVYTLPPSRDELTKNQVSLTCLVKGFYPSDIAVEWESLGLVWVGYKTTPPVLDSDGSFFLYSKLTVPKSTWQQGWVFSCSVMHEALHNHYTQKSLSLSPGK | binds | 
2 | Clone CH3C.3.2-1 (designed binder, Modified Fc polypeptide; also called CH3C.18.3.2-1) APELLGGPSVFLFPPKPKDTLMISRTPEVTCVVVDVSHEDPEVKFNWYVDGVEVHNAKTKPREEQYNSTYRVVSVLTVLHQDWLNGKEYKCKVSNKALPAPIEKTISKAKGQPREPQVYTLPPSRDELTKNQVSLTCLVKGFYPSDIAVEWESLGHVWVNFKTTPPVLDSDGSFFLYSKLTVPKSTWQQGWVFSCSVMHEALHNHYTQKSLSLSPGK |  | binding result [2]: binds
3 | Clone CH3C.35.21 (designed binder, Modified Fc polypeptide) APELLGGPSVFLFPPKPKDTLMISRTPEVTCVVVDVSHEDPEVKFNWYVDGVEVHNAKTKPREEQYNSTYRVVSVLTVLHQDWLNGKEYKCKVSNKALPAPIEKTISKAKGQPREPQVYTLPPSRDELTKNQVSLTCLVKGFYPSDIAVWWESYGTEWSSYKTTPPVLDSDGSFFLYSKLTVTKEEWQQGFVFSCSVMHEALHNHYTQKSLSLSPGK |  | binding result [3]: binds
4 | Clone CH3C.34 (designed binder, Modified Fc polypeptide) APELLGGPSVFLFPPKPKDTLMISRTPEVTCVVVDVSHEDPEVKFNWYVDGVEVHNAKTKPREEQYNSTYRVVSVLTVLHQDWLNGKEYKCKVSNKALPAPIEKTISKAKGQPREPQVYTLPPSRDELTKNQVSLTCLVKGFYPSDIAVEWESLGLVWVFSKTTPPVLDSDGSFFLYSKLTVPKSTWQQGWVFSCSVMHEALHNHYTQKSLSLSPGK | binds | 
5 | Clone CH3C.25 (designed binder, Modified Fc polypeptide) APELLGGPSVFLFPPKPKDTLMISRTPEVTCVVVDVSHEDPEVKFNWYVDGVEVHNAKTKPREEQYNSTYRVVSVLTVLHQDWLNGKEYKCKVSNKALPAPIEKTISKAKGQPREPQVYTLPPSRDELTKNQVSLTCLVKGFYPSDIAVEWESMGHVWVGYKTTPPVLDSDGSFFLYSKLTVDKSTWQQGWVFSCSVMHEALHNHYTQKSLSLSPGK | binds | 
